Laboratory results as given in paper PMC2749469 (Biochemistry, 2009).

Molecular target: the molecule itself
Experiment: SEC

B1: E. coli HemG (recombinant, six histidine-tagged) (enzyme, UniProt P0ACB4 1-181, looked up)
chain: MKTLILFSTRDGQTREIASYLASELKELGIQADVANVHRIEEPQWENYDRVVIGASIRYGHYHSAFQEFVKKHATRLNSMPSAFYSVNLVARKPEKRTPQTNSYARKFLMNSQWRPDRCAVIAGALRYPRYRWYDRFMIKLIMKMSGGETDTRKEVVYTDWEQVANFAREIAHLTDKPTLK
  stoichiometry N: 4
